Among the data in paper doi:10.1101/266643 (bioRxiv, 2018) are Kd values, retold here.

As usually defined, the Kd is the free concentration of one partner at which half of the binding sites on the other are occupied at equilibrium, for simple one-to-one binding. Lower therefore signals tighter binding.

The target in this assay is TrkA receptor (tropomyosin receptor kinase A) on NIH3T3-TrkA cells (UniProt P04629 33-796).
Chain of TrkA receptor (tropomyosin receptor kinase A) on NIH3T3-TrkA cells (P04629 33-796): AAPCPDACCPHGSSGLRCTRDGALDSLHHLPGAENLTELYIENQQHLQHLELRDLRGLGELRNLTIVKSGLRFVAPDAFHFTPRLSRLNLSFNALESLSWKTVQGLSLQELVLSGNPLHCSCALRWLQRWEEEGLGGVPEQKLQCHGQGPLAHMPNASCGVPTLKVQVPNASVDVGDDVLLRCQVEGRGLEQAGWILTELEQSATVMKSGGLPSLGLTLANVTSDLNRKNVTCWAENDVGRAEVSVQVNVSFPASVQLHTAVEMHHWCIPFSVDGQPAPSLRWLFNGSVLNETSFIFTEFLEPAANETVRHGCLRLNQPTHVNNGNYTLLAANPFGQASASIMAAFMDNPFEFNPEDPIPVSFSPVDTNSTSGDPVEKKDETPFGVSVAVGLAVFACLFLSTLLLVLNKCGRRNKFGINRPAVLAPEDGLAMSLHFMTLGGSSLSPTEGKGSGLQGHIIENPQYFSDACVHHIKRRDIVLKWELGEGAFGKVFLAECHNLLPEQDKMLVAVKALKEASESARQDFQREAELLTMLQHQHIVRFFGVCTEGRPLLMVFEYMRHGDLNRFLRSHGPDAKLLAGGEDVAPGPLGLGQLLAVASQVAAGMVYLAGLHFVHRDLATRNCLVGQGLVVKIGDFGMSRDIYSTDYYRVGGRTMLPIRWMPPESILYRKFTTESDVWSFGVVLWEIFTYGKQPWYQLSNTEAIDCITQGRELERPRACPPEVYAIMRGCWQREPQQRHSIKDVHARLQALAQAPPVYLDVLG

B1: wildtype nerve growth factor (wtNGF), monobiotinylated, with AviTag (ligand, mouse, UniProt P01139 122-241, looked up)
chain: SSTHPVFHMGEFSVCDSVSVWVGDKTTATDIKGKEVTVLAEVNINNSVFRQYFFETKCRASNPVESGCRGIDSKHWNSYCTTTHTFVKALTTDEKQAAWRFIRIDTACVCVLSRKATRRG
modifications: biotin on the AviTag (BirA co-expressed); conjugated to streptavidin-QD655 for the assays on cells
B1 came in with a Kd of 2.27 nM.

B2: NGF^R100W, mature form of the HSAN V mutant nerve growth factor, monobiotinylated, with AviTag (ligand)
chain: SSTHPVFHMGEFSVCDSVSVWVGDKTTATDIKGKEVTVLAEVNINNSVFRQYFFETKCRASNPVESGCRGIDSKHWNSYCTTTHTFVKALTTDEKQAAWWFIRIDTACVCVLSRKATRRGGGGLNDIFEAQKIEWHE
modifications: biotin on the AviTag (BirA co-expressed); conjugated to streptavidin-QD655 for the assays on cells
Consider B2, for which the Kd turned out to be 2.79 nM.
